The values that follow come from PMC10127198, “Pseudouridine-Modifying Enzymes SapB and SapH Control Entry into the Pseudouridimycin Biosynthetic Pathway” (ACS Chemical Biology, 2023).

The stoichiometry N is a count of units in the complex or per binding partner. For orientation: Km means the substrate concentration at which the rate is half of its maximum. The kcat is the maximal rate divided by the concentration of active sites. What is called kcat/Km is the second-order rate constant that governs catalysis at low substrate concentration.

Series [1] has as its target SapH (Streptomyces albus DSM 40763). Put plainly: crystal structure; hanging drop vapour diffusion at 20 °C; SapH 9.9 mg/mL in 50 mM TAPS pH 8.5, 250 mM NaCl, 10% glycerol; well 0.1 M BisTRIS-propane, 0.2 M Na-K-phosphate, 27.5% PEG3350, pH 7.5; space group P212121; dimer in the asymmetric unit.
For series [2], the system named is O=c1[nH]c(=O)c([C@@H]2O[C@H](CO)[C@@H](O)[C@H]2O)co1. Nature of the series: purified protein. To be noted: 50 mM Tris-HCl pH 7.5, 10 mM NaCl, 10 mM KCl, 5 mM MgCl2, O2 as electron acceptor.
Series [3] relates to O=c1[nH]cc([C@@H]2O[C@H](CO)[C@@H](O)[C@H]2O)c(=O)[nH]1. Put plainly: purified protein. As to conditions: 50 mM Tris-HCl pH 7.5, 10 mM NaCl, 10 mM KCl, 5 mM MgCl2, O2 as electron acceptor.
In series [4] the target is T1, SapH (Streptomyces albus, UniProt A0ACH0CL42).
T1 construct: gene NR995_03130; homodimer
Nature of the series: X-ray crystallography, […] Å. The class given is binding. As to conditions: active site at dimer interface; non-covalent (no link to Lys289); crystals pH 7.5, 20 °C.

The target of series [5] is T1, SapH. Nature of the series: relative activity by HPLC, coupled with SapB. It is filed as biochemical. As to conditions: amino donor 5 mM, 1.5 mM uridine, 1 μM SapB, 2 μM SapH, pH 7.5.
The target of series [6] is T2, SapB (Streptomyces albus, UniProt A0ACH0CL45).
T2 construct: gene NR995_03120; N-terminal His6-tag, codon-optimized synthetic gene in pBADHisBd, E. coli TOP10
T2 sequence (A0ACH0CL45 1-509): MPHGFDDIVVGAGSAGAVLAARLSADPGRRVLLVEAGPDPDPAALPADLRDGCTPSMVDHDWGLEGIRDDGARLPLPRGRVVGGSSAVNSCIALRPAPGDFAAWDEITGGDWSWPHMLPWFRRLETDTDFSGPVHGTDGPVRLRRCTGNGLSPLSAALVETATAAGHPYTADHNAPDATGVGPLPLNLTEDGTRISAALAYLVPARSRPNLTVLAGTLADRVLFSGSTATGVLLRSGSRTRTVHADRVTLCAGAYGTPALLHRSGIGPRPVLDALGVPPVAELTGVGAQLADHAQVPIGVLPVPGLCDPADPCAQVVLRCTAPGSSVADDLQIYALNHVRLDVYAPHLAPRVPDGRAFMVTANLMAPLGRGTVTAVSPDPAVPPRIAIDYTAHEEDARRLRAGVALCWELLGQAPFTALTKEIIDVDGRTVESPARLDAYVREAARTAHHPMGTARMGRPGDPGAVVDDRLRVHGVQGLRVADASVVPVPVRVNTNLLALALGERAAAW
Put plainly: LC/MS of cofactor released by boiling. The class given is binding. As to conditions: copurified, tightly bound.

T1 sequence (A0ACH0CL42 entry or part of it): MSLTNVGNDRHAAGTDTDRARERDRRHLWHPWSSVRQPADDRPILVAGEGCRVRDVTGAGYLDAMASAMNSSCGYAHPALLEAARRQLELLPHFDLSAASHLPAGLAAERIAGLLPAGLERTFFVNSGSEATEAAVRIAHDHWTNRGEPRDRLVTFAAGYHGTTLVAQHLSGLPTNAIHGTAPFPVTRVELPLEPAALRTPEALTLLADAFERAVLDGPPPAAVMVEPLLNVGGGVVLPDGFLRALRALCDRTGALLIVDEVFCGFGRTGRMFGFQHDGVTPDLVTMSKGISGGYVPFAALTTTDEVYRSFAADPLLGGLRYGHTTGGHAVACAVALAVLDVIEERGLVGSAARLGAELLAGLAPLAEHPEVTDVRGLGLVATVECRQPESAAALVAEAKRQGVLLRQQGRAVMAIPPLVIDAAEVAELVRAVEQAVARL

The compound SapH (enzyme) gave a stoichiometry N in series [1] of 2.
Take SapB (Streptomyces albus): in series [2], the Michaelis constant (Km) worked out at 181 ± 25 µM, the kcat is 0.0172 s⁻¹ and the kcat/Km was determined as 95 M⁻¹ s⁻¹. Moreover, in series [3], the Km was 34 ± 5 µM, the kcat is 0.019 s⁻¹ and the kcat/Km is 550 M⁻¹ s⁻¹.
On to `Cc1ncc(COP(=O)(O)O)c(CN)c1O` [pyridoxamine-5′-phosphate], for which the “X-ray crystallography, 1.55 Å” value in series [4] is given as “The bound PLP was modeled as pyridoxamine, according to the observed electron density map”.
Regarding `N=C(N)NCCC[C@H](N)C(=O)O` [arginine], the “relative activity by HPLC, coupled with SapB” value in series [5] is “shows preference for methionine, phenylalanine, and arginine”.
As for `Cc1cc2nc3c(=O)[nH]c(=O)nc-3n(C[C@H](O)[C@H](O)[C@H](O)COP(=O)(O)OP(=O)(O)OC[C@H]3O[C@@H](n4cnc5c(N)ncnc54)[C@H](O)[C@@H]3O)c2cc1C` [flavin adenine dinucleotide], the “LC/MS of cofactor released by boiling” value in series [6] is given as “LC/MS) analysis identified the SapB cofactor to be flavin adenine dinucleotide (FAD)”.
